In paper doi:10.1101/2022.11.09.515782:

Biological target: glycophorin A TMD, BLaTM chimera
Assay: split reporter

Q: For “glycophorin A TMD, BLaTM chimera (domain or fragment)”, which ampicillin LD50 is on record?
A: Its ampicillin LD50 is 100 µg/mL.
